In this assay the target is T1, angiotensin I-converting enzyme (UniProt P12822).
T1 sequence: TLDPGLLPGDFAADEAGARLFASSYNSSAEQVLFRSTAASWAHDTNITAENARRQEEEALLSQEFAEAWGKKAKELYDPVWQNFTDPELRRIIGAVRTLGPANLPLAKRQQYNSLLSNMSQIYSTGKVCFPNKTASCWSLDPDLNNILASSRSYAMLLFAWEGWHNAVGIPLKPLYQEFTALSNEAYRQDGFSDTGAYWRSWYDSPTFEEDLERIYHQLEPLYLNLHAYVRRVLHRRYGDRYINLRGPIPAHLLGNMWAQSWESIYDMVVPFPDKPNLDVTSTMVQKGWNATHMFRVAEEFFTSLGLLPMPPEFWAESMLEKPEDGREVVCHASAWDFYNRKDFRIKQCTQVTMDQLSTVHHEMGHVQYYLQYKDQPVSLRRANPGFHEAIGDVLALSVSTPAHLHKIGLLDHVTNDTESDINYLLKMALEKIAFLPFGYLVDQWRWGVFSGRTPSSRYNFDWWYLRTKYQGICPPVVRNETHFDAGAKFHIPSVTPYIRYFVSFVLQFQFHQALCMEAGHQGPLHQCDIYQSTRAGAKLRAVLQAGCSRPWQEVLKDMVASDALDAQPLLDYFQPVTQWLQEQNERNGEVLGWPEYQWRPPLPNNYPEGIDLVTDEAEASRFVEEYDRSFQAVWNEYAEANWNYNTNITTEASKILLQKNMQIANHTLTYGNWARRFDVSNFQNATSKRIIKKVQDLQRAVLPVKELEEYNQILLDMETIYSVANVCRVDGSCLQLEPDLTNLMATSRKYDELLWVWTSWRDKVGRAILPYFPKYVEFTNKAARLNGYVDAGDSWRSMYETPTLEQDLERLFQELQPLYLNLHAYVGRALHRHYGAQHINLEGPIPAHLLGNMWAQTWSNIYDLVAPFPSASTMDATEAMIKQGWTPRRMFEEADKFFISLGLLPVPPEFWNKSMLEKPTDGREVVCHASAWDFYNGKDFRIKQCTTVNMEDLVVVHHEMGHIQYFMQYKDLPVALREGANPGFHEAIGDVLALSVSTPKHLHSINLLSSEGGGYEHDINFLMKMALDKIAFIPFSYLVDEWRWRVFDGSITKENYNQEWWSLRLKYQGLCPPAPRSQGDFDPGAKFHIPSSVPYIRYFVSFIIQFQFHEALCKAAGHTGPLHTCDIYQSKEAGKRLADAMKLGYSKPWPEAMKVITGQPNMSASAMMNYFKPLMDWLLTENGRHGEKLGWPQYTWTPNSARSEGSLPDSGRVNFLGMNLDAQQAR

As for VKP (peptide), the ACE inhibitory activity (release of hippuric acid from HHL, HPLC at 228 nm; 50 mM borate, 0.3 M NaCl, pH 8.3, 37 °C, 60 min), IC50 is 1.3 μM.

B1: VKCFR (peptide)
peptide: VKCFR
The molecule B1 registered an ACE inhibitory activity (release of hippuric acid from HHL, HPLC at 228 nm; 50 mM borate, 0.3 M NaCl, pH 8.3, 37 °C, 60 min), IC50 of 34.5 μM.
